Laboratory results reported in paper PMC4132714, “Phospho-dependent and phospho-independent interactions of the helicase UPF1 with the NMD factors SMG5–SMG7 and SMG6” (Nucleic Acids Research, 2014).
Ends that are not written are not given here.

T1: SMG5–7 TPR complex (heterodimer of SMG5 TPR and SMG7 TPR) (human, UniProt Q9UPR3 1-803; Q92540 1-499, Δ408–632)
T1 construct: SMG5, human, residues 1–803 with the predicted insertion 408–632 removed (SMG5 TPR); SMG7, human, residues 1–499 (SMG7 TPR); Written SMG5-His and His-(TEV)-SMG7 in the methods; also called SMG5–SMG7; SMG5–7 TPR heterodimer; not shown: His, N-terminal, cleaved; copies: 1 + 1
T1 sequence (looked up) 1: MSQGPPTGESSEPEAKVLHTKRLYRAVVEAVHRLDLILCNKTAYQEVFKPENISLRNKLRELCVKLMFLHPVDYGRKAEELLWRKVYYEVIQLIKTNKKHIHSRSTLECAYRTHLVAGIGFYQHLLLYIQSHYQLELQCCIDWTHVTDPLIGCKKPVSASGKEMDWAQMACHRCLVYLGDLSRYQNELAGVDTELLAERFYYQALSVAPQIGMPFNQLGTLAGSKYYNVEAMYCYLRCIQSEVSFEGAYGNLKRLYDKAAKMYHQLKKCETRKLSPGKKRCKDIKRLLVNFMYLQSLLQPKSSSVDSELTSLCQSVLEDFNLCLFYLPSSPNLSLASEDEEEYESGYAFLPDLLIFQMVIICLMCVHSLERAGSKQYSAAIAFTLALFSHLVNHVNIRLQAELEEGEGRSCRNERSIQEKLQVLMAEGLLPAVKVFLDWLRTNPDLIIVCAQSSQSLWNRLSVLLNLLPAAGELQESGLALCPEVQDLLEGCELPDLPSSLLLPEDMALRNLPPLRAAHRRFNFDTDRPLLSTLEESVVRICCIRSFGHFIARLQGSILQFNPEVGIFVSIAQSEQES
T1 sequence (looked up) 2: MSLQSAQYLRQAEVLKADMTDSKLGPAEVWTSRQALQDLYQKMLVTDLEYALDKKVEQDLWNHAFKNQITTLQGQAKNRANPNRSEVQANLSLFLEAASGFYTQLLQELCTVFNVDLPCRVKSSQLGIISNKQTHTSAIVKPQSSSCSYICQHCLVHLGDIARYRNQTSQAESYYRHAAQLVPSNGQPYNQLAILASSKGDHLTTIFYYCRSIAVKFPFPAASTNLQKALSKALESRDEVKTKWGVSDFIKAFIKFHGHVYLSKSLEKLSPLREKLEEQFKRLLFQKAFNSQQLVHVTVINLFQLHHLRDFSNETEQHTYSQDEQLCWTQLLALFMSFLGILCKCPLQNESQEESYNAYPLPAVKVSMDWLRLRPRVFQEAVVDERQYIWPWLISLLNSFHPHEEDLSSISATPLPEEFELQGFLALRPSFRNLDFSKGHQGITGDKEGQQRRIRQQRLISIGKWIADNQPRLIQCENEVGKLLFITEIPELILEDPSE


Legend:
[1] = target: T1, SMG5–7 TPR complex (heterodimer of SMG5 …); assay: pull-down; GST pull-down, one prey: ∼2 μg GST-tagged bait with equal amount of untagged prey in 20 mM HEPES pH 7.5, 125 mM NaCl, 2% glycerol, 2 mM DTT (45 μl), 45 min at room temperature; glutathione–Sepharose beads in 20 mM HEPES pH 7.5, 150 mM NaCl, 10% glycerol, 2 mM DTT, 0.1% NP-40, 1 h at 4°C; eluted with glutathione; SDS-PAGE, Coomassie; GST-UPF1 constructs pre-treated with SMG1 wt or SMG1 KD where indicated; details: both partners purified
[2] = target: T2, SMG6fl (HA-Flag tagged, purified from HEK 293T cells) (human, UniProt Q86US8 1-1419); assay: pull-down; GST pull-down as in Figure 1C with GST-UPF1fl as bait and several preys added together (SMG6fl, UPF2, UPF3, EJC; or SMG6fl and SMG5–7 TPR after treatment with SMG1 wt or KD); Coomassie; details: both partners purified
T2 construct: SMG6, human, full length (SMG6CT ends at residue 1419)
T2 sequence (Q86US8 whole entry): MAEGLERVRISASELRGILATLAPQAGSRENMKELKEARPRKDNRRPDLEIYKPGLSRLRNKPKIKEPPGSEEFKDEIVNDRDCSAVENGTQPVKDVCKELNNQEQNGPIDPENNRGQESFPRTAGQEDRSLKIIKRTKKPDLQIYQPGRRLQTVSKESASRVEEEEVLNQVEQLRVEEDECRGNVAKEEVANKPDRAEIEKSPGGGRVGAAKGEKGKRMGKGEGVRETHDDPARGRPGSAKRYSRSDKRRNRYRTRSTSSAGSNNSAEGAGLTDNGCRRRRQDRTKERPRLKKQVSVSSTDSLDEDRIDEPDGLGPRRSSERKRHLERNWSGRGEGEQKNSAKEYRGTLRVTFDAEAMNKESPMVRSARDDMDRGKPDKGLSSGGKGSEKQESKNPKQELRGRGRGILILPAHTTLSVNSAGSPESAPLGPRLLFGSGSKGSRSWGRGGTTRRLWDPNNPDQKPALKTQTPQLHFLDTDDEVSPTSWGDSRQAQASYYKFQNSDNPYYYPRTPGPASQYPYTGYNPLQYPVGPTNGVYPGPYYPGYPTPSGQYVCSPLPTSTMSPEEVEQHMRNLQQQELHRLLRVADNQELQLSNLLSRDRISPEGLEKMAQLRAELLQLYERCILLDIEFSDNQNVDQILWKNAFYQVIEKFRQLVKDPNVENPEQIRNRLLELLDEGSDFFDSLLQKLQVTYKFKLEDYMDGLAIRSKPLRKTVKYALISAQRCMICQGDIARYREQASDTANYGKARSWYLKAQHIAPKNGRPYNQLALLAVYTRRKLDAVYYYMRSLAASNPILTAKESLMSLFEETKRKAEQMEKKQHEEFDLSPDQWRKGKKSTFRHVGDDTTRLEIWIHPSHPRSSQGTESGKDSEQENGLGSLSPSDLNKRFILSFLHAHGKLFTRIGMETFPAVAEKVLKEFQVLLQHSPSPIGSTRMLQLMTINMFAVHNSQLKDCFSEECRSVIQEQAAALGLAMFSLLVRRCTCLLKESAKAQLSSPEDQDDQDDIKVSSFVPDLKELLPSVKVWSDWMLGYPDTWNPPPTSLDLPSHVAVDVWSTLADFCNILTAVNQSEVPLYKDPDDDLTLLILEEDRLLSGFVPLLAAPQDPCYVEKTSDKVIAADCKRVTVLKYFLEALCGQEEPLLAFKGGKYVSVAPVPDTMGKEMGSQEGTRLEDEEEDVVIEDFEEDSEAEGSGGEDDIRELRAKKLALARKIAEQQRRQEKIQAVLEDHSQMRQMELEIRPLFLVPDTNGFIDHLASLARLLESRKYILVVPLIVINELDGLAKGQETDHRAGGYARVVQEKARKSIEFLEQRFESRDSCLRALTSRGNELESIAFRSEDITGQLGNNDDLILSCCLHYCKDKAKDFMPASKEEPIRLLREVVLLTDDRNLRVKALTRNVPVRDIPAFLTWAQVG

Row | Binder | binding result [1] | binding result [2]
1 | {GST}-EFKSQIDVALSQDSTYQGERAYQHGGVTGLSQY (domain or fragment, human, UniProt Q92900-2 1086-1118, looked up, also: phosphorylated in vitro by SMG1 at SQ motifs, sites not given here, source: E. coli, purified, then phosphorylated in vitro with SMG1 wt) [GST-UPF1CT4 (residues 1086–1118) phosphorylated in vitro by SMG1 wt] | binds | –
2 | GST-UPF1CT (residues 917–1118) phosphorylated in vitro by SMG1 wt (domain or fragment, human, UniProt Q92900-2 917-1118, looked up, phosphorylated in vitro by SMG1 at SQ motifs; sites not stated for this construct, also called C-terminal tail of UPF1; source: E. coli BL21 (DE3) STAR pRARE, purified, then phosphorylated in vitro with SMG1 wt) RKLVNTINPGARFMTTAMYDAREAIIPGSVYDRSSQGRPSSMYFQTHDQIGMISAGPSHVAAMNIPIPFNLVMPPMPPPGYFGQANGPAAGRGTPKGKTGRGGRQKNRFGLPGPSQTNLPNSQASQDVASQPFSQGALTQGYISMSQPSQMSQPGLSQPELSQDSYLGDEFKSQIDVALSQDSTYQGERAYQHGGVTGLSQY | binds | –

Next, values leading:

Row | binding result [1] | binding result [2] | Binder
3 | binds | – | PGLSQPELSQDSYLGDEFKSQIDVALSQDSTYQGERAYQHGGVTGLSQY (domain or fragment, human, UniProt Q92900-2 1070-1118, looked up, not fully specified (N-terminus); also: phosphorylated in vitro by SMG1, sites not given here, GST fusion partner not in chain, source: E. coli, purified, then phosphorylated in vitro with SMG1 wt) [GST-UPF1CT2 (residues 1070–1118) phosphorylated in vitro by SMG1 wt]
4 | – | binds | GST-UPF1fl, unphosphorylated (mock-treated with SMG1 KD or not treated) (natural protein, human, UniProt Q92900-2 1-1118, looked up, UPF1, human; also called full-length GST-UPF1; unphosphorylated UPF1) MSVEAYGPSSQTLTFLDTEEAELLGADTQGSEFEFTDFTLPSQTQTPPGGPGGPGGGGAGGPGGAGAGAAAGQLDAQVGPEGILQNGAVDDSVAKTSQLLAELNFEEDEEDTYYTKDLPIHACSYCGIHDPACVVYCNTSKKWFCNGRGNTSGSHIVNHLVRAKCKEVTLHKDGPLGETVLECYNCGCRNVFLLGFIPAKADSVVVLLCRQPCASQSSLKDINWDSSQWQPLIQDRCFLSWLVKIPSEQEQLRARQITAQQINKLEELWKENPSATLEDLEKPGVDEEPQHVLLRYEDAYQYQNIFGPLVKLEADYDKKLKESQTQDNITVRWDLGLNKKRIAYFTLPKTDSDMRLMQGDEICLRYKGDLAPLWKGIGHVIKVPDNYGDEIAIELRSSVGAPVEVTHNFQVDFVWKSTSFDRMQSALKTFAVDETSVSGYIYHKLLGHEVEDVIIKCQLPKRFTAQGLPDLNHSQVYAVKTVLQRPLSLIQGPPGTGKTVTSATIVYHLARQGNGPVLVCAPSNIAVDQLTEKIHQTGLKVVRLCAKSREAIDSPVSFLALHNQIRNMDSMPELQKLQQLKDETGELSSADEKRYRALKRTAERELLMNADVICCTCVGAGDPRLAKMQFRSILIDESTQATEPECMVPVVLGAKQLILVGDHCQLGPVVMCKKAAKAGLSQSLFERLVVLGIRPIRLQVQYRMHPALSAFPSNIFYEGSLQNGVTAADRVKKGFDFQWPQPDKPMFFYVTQGQEEIASSGTSYLNRTEAANVEKITTKLLKAGAKPDQIGIITPYEGQRSYLVQYMQFSGSLHTKLYQEVEIASVDAFQGREKDFIILSCVRANEHQGIGFLNDPRRLNVALTRARYGVIIVGNPKALSKQPLWNHLLNYYKEQKVLVEGPLNNLRESLMQFSKPRKLVNTINPGARFMTTAMYDAREAIIPGSVYDRSSQGRPSSMYFQTHDQIGMISAGPSHVAAMNIPIPFNLVMPPMPPPGYFGQANGPAAGRGTPKGKTGRGGRQKNRFGLPGPSQTNLPNSQASQDVASQPFSQGALTQGYISMSQPSQMSQPGLSQPELSQDSYLGDEFKSQIDVALSQDSTYQGERAYQHGGVTGLSQY
5 | – | binds | GST-UPF1fl phosphorylated in vitro by SMG1 wt (natural protein, human, UniProt Q92900-2 1-1118, looked up, phosphorylated by SMG1 at SQ and TQ motifs present exclusively in the N- and C-terminal tails; detected sites include Thr28, Ser1078, Ser1096 and Ser1116, UPF1, human; also called phospho-UPF1; phospho-UPF1fl) MSVEAYGPSSQTLTFLDTEEAELLGADTQGSEFEFTDFTLPSQTQTPPGGPGGPGGGGAGGPGGAGAGAAAGQLDAQVGPEGILQNGAVDDSVAKTSQLLAELNFEEDEEDTYYTKDLPIHACSYCGIHDPACVVYCNTSKKWFCNGRGNTSGSHIVNHLVRAKCKEVTLHKDGPLGETVLECYNCGCRNVFLLGFIPAKADSVVVLLCRQPCASQSSLKDINWDSSQWQPLIQDRCFLSWLVKIPSEQEQLRARQITAQQINKLEELWKENPSATLEDLEKPGVDEEPQHVLLRYEDAYQYQNIFGPLVKLEADYDKKLKESQTQDNITVRWDLGLNKKRIAYFTLPKTDSDMRLMQGDEICLRYKGDLAPLWKGIGHVIKVPDNYGDEIAIELRSSVGAPVEVTHNFQVDFVWKSTSFDRMQSALKTFAVDETSVSGYIYHKLLGHEVEDVIIKCQLPKRFTAQGLPDLNHSQVYAVKTVLQRPLSLIQGPPGTGKTVTSATIVYHLARQGNGPVLVCAPSNIAVDQLTEKIHQTGLKVVRLCAKSREAIDSPVSFLALHNQIRNMDSMPELQKLQQLKDETGELSSADEKRYRALKRTAERELLMNADVICCTCVGAGDPRLAKMQFRSILIDESTQATEPECMVPVVLGAKQLILVGDHCQLGPVVMCKKAAKAGLSQSLFERLVVLGIRPIRLQVQYRMHPALSAFPSNIFYEGSLQNGVTAADRVKKGFDFQWPQPDKPMFFYVTQGQEEIASSGTSYLNRTEAANVEKITTKLLKAGAKPDQIGIITPYEGQRSYLVQYMQFSGSLHTKLYQEVEIASVDAFQGREKDFIILSCVRANEHQGIGFLNDPRRLNVALTRARYGVIIVGNPKALSKQPLWNHLLNYYKEQKVLVEGPLNNLRESLMQFSKPRKLVNTINPGARFMTTAMYDAREAIIPGSVYDRSSQGRPSSMYFQTHDQIGMISAGPSHVAAMNIPIPFNLVMPPMPPPGYFGQANGPAAGRGTPKGKTGRGGRQKNRFGLPGPSQTNLPNSQASQDVASQPFSQGALTQGYISMSQPSQMSQPGLSQPELSQDSYLGDEFKSQIDVALSQDSTYQGERAYQHGGVTGLSQY
6 | binds | – | GST-UPF1CT1 (residues 1052–1118) phosphorylated in vitro by SMG1 wt (domain or fragment, human, UniProt Q92900-2 1052-1118, looked up, also: phosphorylated in vitro by SMG1 at SQ motifs, sites not given here, source: E. coli, purified, then phosphorylated in vitro with SMG1 wt) {GST}-GALTQGYISMSQPSQMSQPGLSQPELSQDSYLGDEFKSQIDVALSQDSTYQGERAYQHGGVTGLSQY
